Laboratory results published in paper PMC7476095.

What was measured:
KU80 [1] = molecular target: KU80 (UniProt P13010); experiment: anti-KU80 co-IP, MAD1 blot; conditions: reference: wild type, IR 6 Gy; sites S214
KU80 [2] = molecular target: KU80 (UniProt P13010); experiment: anti-FLAG co-IP, KU80 blot; conditions: reference: wild type, IR 6 Gy; sites S214

MAD1 (mitotic arrest-deficient protein 1) (from UniProt Q9Y6D9) S214A, IR 6 Gy
binding against the reference (KU80 [1]): weaker
binding against the reference (KU80 [2]): weaker
